# Data taken from the nanobody polyreactivity screen of Harvey et al. (2022).
# Assay: yeast display, Sf9 membrane polyspecificity reagent, FACS + sequencing; frameworks hold sequencing errors
# In short: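 Polyreactivity labels are assigned by the sorting gate from which each nanobody was recovered. The gates were low and high (top ~1%), set on anti-HA fluorescence for expression and streptavidin fluorescence for reagent binding. Before sorting, galactose-induced (36–48 hours) yeast display cells were stained for 1 hour at 4 °C with 10% biotinylated, detergent-solubilized Sf9 membrane reagent.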
row,Sequence,polyreactivity (PSR sort gate)
1,QVQLVESGGGLVQAGGSLRLSCAPSGFIFTPYTMGGYRQAPGKERELVAAITDGSSTYYADSVKGRFTISRDNAKNTVYVQMNSLKPEDTAVYYCNADGKPPYISWLYDYWGQGTQVTVST,low polyreactivity
2,QVQLVESGGGLVQAGGSLRLSCAASGRTFGLNAMGWYRQAPGKERELVAAITYSGGSTYYADSVKGRFTISRDNAKNTVYLQMNSLKPEDTAVYYCAKEVQTYWYHYYYWGQGTQVTVSS,high polyreactivity
3,QVQLVESGGGLVQAGGSLRLSCAASGFTFSSYAMGWYRQAPGKERELVAAISRSGGSTYYADSVKGRFTISRDNAKNTVYVQMNSLKPEDTAVYYCAARFFARHYYWGQGTQVTVSS,high polyreactivity
4,QVQLVESGGGLVQAGGSLRLSCAASGRIFSSYAMGWYRQAPGKERELVAAISSRGGSTYYADSVKGRFTIARDNAKNTVYLQMNSLKPEDTAVYYCARVKYSGVVYKYDYWGQGTQVTVSS,high polyreactivity
5,QVQLVESGGGLVQAGGSLRLICAASGIIFPFYVMGWYRQAPGKERELVAAITWSGDGTYYADSVKGRFTISRDNAKNTVYLQMNSLKPEDTAVYYCAAQWYYGGVKYYYWGQGTIVTVSS,low polyreactivity
6,QVQLVESGGGLVQAGGTLRVSCAASGLIFYGNVMGWYRQAPGKERELVAGISRNSGSTYYADSVKGRFTISRDNANNTVYLQMNSLKPEDTAVYYCAALKFEAWAGEDYWGPGTQVTVSS,low polyreactivity
7,QVQLVESGGGLVQAGGSLRLSCAASGFIFSRNAMGWYRQAPGKERELVAVISTRGGSTYYADSVKGRFTISRDNAKNTVYLQMNSLKPEDTAVYYCAARRTRGYEYWGQGTQVTVSS,high polyreactivity
8,QVQLVESGGGLVQEGGSLRLRCAASGSTFIRYVMGWYRQAPGKERELVAGINSSGGSTNYADSVKGRFTISRDNAKNTVYLQMNSLKPVDTAVYYCNADLRSEYVYWGQGTQVTVSS,low polyreactivity
9,QVQLVESGGGLVQAGGSLRLSCAASGRTFTRYTSGSYRPAPGKERELVAAIRYSGGSTYYADSVKGRFTISGDNAKNTVYLQMNSLKPEDTAVYYCAARSYYYGFLYRYDYWGQGTQVTVSS,low polyreactivity
10,QVQLVESGGGLVQAGGSLRLTCAASGLIFGSNAMRWYRKAPGKERELVAGISGSGEHYVLRRSVKGRFTISRDNAKNTVYVQMNSLKPEDTAVYYCATYSQSSKGPAGYDYWGQGTHVTVSS,high polyreactivity
11,QVQLLESGGGLVQAGGSLRLSCAASGRIFPYNAMGWYRQAPGKERELVAAISRSGGRTYYADSVKGRFTISRDNAKNTVYLQRNSLKPEDTAVYYCAAKYQAGENYWGQGTQVTVSS,high polyreactivity
12,QVQLVESGGGLDQARGSLRLSCAASGSTLALYTMGWNRQATGKETELVAAISKNGGRTYYADSVKGRFTISRDNAKNTVYLQMYSLKPEDTAVYYCAAASGSYRGYDFWGQGSQVTVSS,high polyreactivity
13,QVQLVESGGGLVQAGGSLRLSCAASGFTFTKYAMGWYRQAPGKERELVAAISGRGGSTYYADSVKGRFTISRDNAKNTVYLQMNSLKPEDTAVYYCAKYRYTVAGYNYWGQGTQVTVSS,high polyreactivity
14,QVQLVESGGGLVQAGGSLSLICAASRRSFYHYTMGWSRQAPGKERELVAAMTSGGSTYYADSVKGRFTISRDNAKNTVYLQMNSLKPEDTAVYYCARVRPLYDYSRYDYWGQRTQVTVSS,high polyreactivity
15,QVQLVESGGGLVQAGGSLSLSCAASGSTFGSNAKGWYRQAPGKARELVAAISSDGSTNYADSVKGRFTISRDNAKNTVYLQMNSLKPEDTAVYYCAADDRHRYNIYDYWGQGTQVTLSS,low polyreactivity
16,QVQLVESGGGLVQAGGSLRLSCAASGSIFGLNAMGWYRQAPGKERELVAAISGGSTNYADSVKGRFTISRDNAKNTVYLQMNSLKPEDTAVYYCAARARRRYYYWGQGTQVTVSS,high polyreactivity
17,QVQLVESGGCLVPAGGSLRLSCAASGSIFSYYAMGWYRQAPGKERELVAAITVRGGSTYYADSVKGRFTISRDNAKNTVYLQMNSLKPEDTAVYYCAADWLDESFSYGPYYYWGQGTQVTVSS,low polyreactivity
